Assay [1] concerns the target GII.6 (AF414410) VLPs (norovirus GII.6). Briefly: ELISA. Background: ELISA stands for enzyme-linked immunosorbent assay.
Another assay addresses GI.2 (AF435807) VLPs (norovirus GI.2). The assay can be described thus: ELISA.
The target of assay [2] is GII.6 (AF414410) VLPs (norovirus GII.6). The assay can be described thus: VLP-PGM blockade.
Assay [3] deals with T1, GII.4 Sydney 2012 shell (S) domain (UniProt P54635 1-221).
T1 chain: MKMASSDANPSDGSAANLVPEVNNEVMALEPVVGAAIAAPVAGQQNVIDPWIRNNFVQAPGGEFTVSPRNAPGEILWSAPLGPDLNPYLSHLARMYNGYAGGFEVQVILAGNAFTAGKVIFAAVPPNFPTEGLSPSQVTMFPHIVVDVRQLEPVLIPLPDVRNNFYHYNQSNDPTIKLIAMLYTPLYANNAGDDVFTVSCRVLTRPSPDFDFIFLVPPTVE
The assay can be described thus: ELISA.

The target of another assay is GI.3 Protruding (norovirus GI.3). The assay can be described thus: ELISA.
The target of another assay is GII.3 (norovirus GII.3). The assay can be described thus: ELISA.
In a further assay the target is GII.17 (norovirus GII.17). The assay can be described thus: ELISA.
Assay [4] concerns the target GI.3 (norovirus GI.3). The assay can be described thus: ELISA.
For another assay, the target named is GII.13 (norovirus GII.13). The assay can be described thus: ELISA.
Assay [5] addresses GI.3 (norovirus GI.3). The assay can be described thus: VLP-PGM blockade.
For assay [6], the target named is T2, GII.4 Houston 2002 (ABY27560.1) VLPs (UniProt P54635 1-539). The assay can be described thus: VLP blockade.
The target in assay [7] is T2, GII.4 Houston 2002 (ABY27560.1) VLPs. Briefly: ELISA binding.
For assay [8], the target named is T1, GII.4 Sydney 2012 shell (S) domain. The assay can be described thus: ELISA.
A further assay concerns the target GII.4 Sydney 2012 VLP (UniProt P54635 1-538). Briefly: VLP-PGM blockade.
In assay [9] the target is T3, GII.4 Houston 2002 VLP (UniProt P54635 1-539). Briefly: VLP blockade.
Assay [10] addresses T3, GII.4 Houston 2002 VLP. Briefly: ELISA binding.
The next assay has as its target Protruding domain. Briefly: ELISA.

As usually defined, the EC50 is the concentration needed to bring the measured effect to its halfway point.

Where two headings read alike, the source gives them in different places.

B1: NORO-168.2 (antibody, V domains shown)
VH: QVQLVESGGGVVQPGRSLRLSCAASGFTFSSYAMHWVRQAPGKGLEWVAVISYDGSNKYYADSVKGRFTISRDNSKNTLYLQMNSLRAEDTAVYYCARSVIGYYYYGMDVWGQGTLVTVSS
VL: QPVLTQPPSASASLGASVTLTCTLSSGYSNYKVDWYQQRPGKGPRFVMRVGTGGIVGSKGDGIPDRFSVLGSGLNRYLTIKNIQEEDESDYHCGADHGSGILFGGGTKLTVL
For B1, the 50% effective concentration (EC50) with GII.6 (AF414410) VLPs [1] stood at 198 nM; with GI.2 (AF435807) VLPs it was 265 nM; with GII.6 (AF414410) VLPs [2], 7 nM; in assay [3], 78 nM.

B2: 310A (antibody, V domains shown)
VH: EVQLVESGGGLVRPGESLRLSCVASGFSVSDNYMSWVRQAPGKGLQWVSVIYSGGTTFYTDSVKGRFTISRDKSKNTLFLQMNSLRAEDTAVYFCTRDPSQYYDSRGHYYQTFTPSFDSWGQGTLVTVSS
VL: DIQMTQSPSVMSASVGDRVTITCRASQDISDYLAWFQQKPGKVPKRLIYAASSLQNGVPSRFSGSGSGTEFTLTISSLQPEDFATYYCLQHDTYPLTFGGGTKVEIK
In the case of B2, the concentration giving a half-maximal response (EC50) was 60 nM with GI.3 Protruding; 15 nM with GII.3; 40 nM in the assay with GII.17; 24 nM in the assay with GI.3 [4]; 53 nM in the assay with GII.13; 192 nM in the assay with GI.3 [5].

B3: NORO-310A (antibody, V domains shown)
VH: EVQLVESGGGLVRPGESLRLSCVASGFSVSDNYMSWVRQAPGKGLQWVSVIYSGGTTFYTDSVKGRFTISRDKSKNTLFLQMNSLRAEDTAVYFCTRDPSQYYDSRGHYYQTFTPSFDSWGQGTLVTVSS
VL: DIQMTQSPSVMSASVGDRVTITCRASQDISDYLAWFQQKPGKVPKRLIYAASSLQNGVPSRFSGSGSGTEFTLTISSLQPEDFATYYCLQHDTYPLTFGGGTKVEIK
Regarding B3, the EC50 in [6] is greater than 100 µg/mL; with GII.6 (AF414410) VLPs [1], 44 nM; in assay [7], 0.6 µg/mL; in assay [3], 19 nM; in [8], 1.8 µg/mL.

B4: NORO-202A.1 (antibody, V domains shown)
VH: QVQLVQSGAEVKKPGASVKVSCKASEYTFTGYYLQWVRQAPGHGLEWMGWINPSGGTKYSQKFQGRVTMTRDTSITTVYMELSRLRSDDTAVYYCARDLLRNWGDHDAFDVWGQGTMVTVSS
VL: QSVLTQPPSASETPGQGVTISCSGSSSNIGSNFVCWYQQVPGTAPKLLIYKNNQRPSGVPDRFSGSKSGTSASLAISGLRSEDEADYYCSAWDDSLSGPVFGGGTKLTVL
As to B4, the EC50 was greater than 100 µg/mL in assay [6]; 0.1 µg/mL in assay [7]; 47 nM with GII.6 (AF414410) VLPs [2]; 3 nM in assay [3]; 0.2 µg/mL in [8].

B5: NORO-279A (antibody, V domains shown)
VH: QVQLVESGGGVVQPGRSLRLSCAASGFTFTKYGMHWVRQAPGKGLEWVAFIAYDGSVKYYGDSAKGRFAISRDNPKNTVYLQMNSLRAEDTAVYYCAKVEIHYYSNSLLGMDVWGQGTLVTVSS
VL: QSVLTQPPSASGTPGQRVTISCSGGNSNIGISYVYWYQHLPGTAPKLLISKNNLRPSGVPDRFSASKSGTSASLAISGLRSEDEAEYYCATLDINMTWVFGGGTKLTVL
Consider B5, for which the EC50 is greater than 100 µg/mL in [6]; 14 nM in the assay with GII.6 (AF414410) VLPs [1]; 0.3 µg/mL in [7]; 32 nM with GII.6 (AF414410) VLPs [2]; 3 nM in assay [3]; 0.4 µg/mL in assay [8].

B6: 327A (antibody, V domains shown)
VH: QVQLEVSGGGLVKPGGSLRLSCAASGFTFTDYYMSWIRQAPGKGLEWVAYISGIMSSTKYADSVKGRFTISRDNGKNSVYLQMNSLTAEDTAVYYCARERVEPPSAVTDFWGQGTLVTVSS
VL: QSVLTQSPSVSGAPGQRVTISCTGTSSNIGAGYDVHWYQQFPGTAPKLLISHNTNRPSGVPDRFSGSKSGTSASLAITGLQAEDEADYYCQSFDSSLRGSRVFGGGTKLTVL
For B6, the EC50 with GII.4 Sydney 2012 VLP turned out to be 5 µg/mL; with GII.4 Houston 2002 VLP [9], 2.2 µg/mL; with GII.4 Houston 2002 VLP [10], 0.3 µg/mL; in the assay with Protruding domain, 0.5 µg/mL.

B7: 232 (antibody, V domains shown)
VH: QVQLKQWGAGLLKSSETLSLTCAFNGNSFGAFYWSWIRLSPGKGLEWIGEVNYLGGADYNPSLKSRVTMSADTSKRQFSLSLKSVTAADTGVYFCARGRPHDYSPGSYSRPRRYYGLDVWGQGTTVTVSS
VL: EIVLTQSPATLSLSPGDSATLSCRASQAVSTTYLAWYQQTRGQAPRLLIHGTYTRAIGIPDKFSGTGSGTDFTLTISGLAPEDFAVYYCQQYSSSPYTFGQGTKIEIT
For the molecule B7, the EC50 with GII.4 Sydney 2012 VLP came to 4.4 µg/mL.

B8: 246A (antibody, V domains shown)
VH: EVHLVESGGGLVKPGGSLRLSCAASGFTFSRYGMHWVRQAPGKGLEWVSSIVIRSDYKYYADSVKGRFTISRDNAKNSLYLQMNSLRADDTAVYYCARDLVEPGITPVGCDYWGRGTLVTVSS
VL: SNELTQAPSVSVSPGQTARITCFGDALANQYSYWYQRKPGQAPVLVIYKDSERPSGIPQRFSASNSGTTVTLTITGVQAEDEADYFCQSADSTGIYKVFGGGTKLTVL
Consider B8, for which the half-maximal effective concentration (EC50) with GII.4 Sydney 2012 VLP came out at 7.4 µg/mL; in the assay with GII.4 Houston 2002 VLP [9] it was 2.1 µg/mL; with Protruding domain, 0.9 µg/mL.

B9: 156.3 (antibody, V domains shown)
VH: QVQLQQWGAGLLKPSETLSLTCAVYGGSFSGYYWSWIRQPPGKGLEWIGEINHSGSTNYNPSLKSRVTISVDTSKNQFSLKLSSVTAADTAVYYCARGLMDVWGQGTLVTVSS
VL: AIRMTQSPSSFSASTGDRVTITCRASQGISSYLAWYQQKPGKAPKLLIYAASTLQSGVPSRFSGSGSGTDFTLTISCLQSEDFATYYCQQYYSYPRTFGQGTKLEIK
Regarding B9, the half-maximal effective concentration (EC50) in the assay with GII.17 was 90 nM; with GI.3 [4], 47 nM; in the assay with GII.13, 54 nM; in the assay with GI.3 [5] it was 678 nM.

B10: 323A (antibody, V domains shown)
VH: QVQLVESGGGVVQPGRSLRLSCAASGFTFSGSSLHWVRQAPGKGLEWVAAISYDGTNTYYADSVKGRFTLSRDNSKNTLYLQMNSLRAEDTAVYYCAKPVLSPFDYWGQGTLVTVSS
VL: QSALTQPASVSGSPGQSITISCTGTSSDVGGYNYVSWYQQHPGKAPKLLIYEVSNRPSGVSRRFSGSKSGNTASLTISGLQAEDEADYYCCSYTSSSTEVFGGGTKLTVL
For B10, the half-maximal effective concentration (EC50) in the assay with GI.3 Protruding stood at 7 nM; in the assay with GI.3 [4], 3 nM; with GI.3 [5] it was 15 nM.

B11: 178.6 (antibody, V domains shown)
VH: QVQLVESGGGVVQPGRSLRLSCAASGFTFSTYGMNWVRQAPGRGLEWVADISYDGSNSRYADSVKGRFTISRDNSKNTLSLQMNGLRTEDTAVYYCAKDWYLAMAGAAFDSWGPGTLVTVSS
VL: SSELTQDPVVSVALGQTVRITCQGDSLTTFYASWFQQKPGQAPALVLYGNDNRPSGIPDRFSGSRSGNTASLTITGAQAEDEADYYCNSRDSSGKPSFGGGTKLTVL
As to B11, the EC50 turned out to be 336 nM with GI.3 Protruding; 29 nM in the assay with GII.3; 16 nM with GII.17; 83 nM with GI.3 [4]; 18 nM in the assay with GII.13; 470 nM with GI.3 [5].

B12: NORO-178.6 (antibody, V domains shown)
VH: QVQLVESGGGVVQPGRSLRLSCAASGFTFSTYGMNWVRQAPGRGLEWVADISYDGSNSRYADSVKGRFTISRDNSKNTLSLQMNGLRTEDTAVYYCAKDWYLAMAGAAFDSWGPGTLVTVSS
VL: SSELTQDPVVSVALGQTVRITCQGDSLTTFYASWFQQKPGQAPALVLYGNDNRPSGIPDRFSGSRSGNTASLTITGAQAEDEADYYCNSRDSSGKPSFGGGTKLTVL
Consider B12, for which the EC50 was determined as 20 nM with GII.6 (AF414410) VLPs [1] and 8 nM in [3].
